The values below come from paper PMC5832332 (Nature, 2017).

The data set deals with the molecule itself. Kind of data set: crystal structure.

In general, stoichiometry N refers to a count of units in the complex or per binding partner.

B1: Enterococcus faecalis Cas2 (natural protein, UniProt A0A3N3FLR9 1-109, looked up)
chain: MSYRYMRLLLMFDMPTDTASDRKAYRKFRKFLINEGFIMHQFSVYSKILLNDTANKAMLARLKQNNPQRGLITLLNVTEKQFSRMIYLHGEQDNRVANSDERIVFLGEE
Turning to B1, the “stoichiometry N” value is 2.
